Laboratory results from IntAct's records for PubMed 18354501.

B1: General transcription factor IIE subunit 1 (Homo sapiens), P29083 (parent)
chain: MADPDVLTEVPAALKRLAKYVIRGFYGIEHALALDILIRNSCVKEEDMLELLKFDRKQLRSVLNNLKGDKFIKCRMRVETAADGKTTRHNYYFINYRTLVNVVKYKLDHMRRRIETDERDSTNRASFKCPVCSSTFTDLEANQLFDPMTGTFRCTFCHTEVEEDESAMPKKDARTLLARFNEQIEPIYALLRETEDVNLAYEILEPEPTEIPALKQSKDHAATTAGAASLAGGHHREAWATKGPSYEDLYTQNVVINMDDQEDLHRASLEGKSAKERPIWLRESTVQGAYGSEDMKEGGIDMDAFQEREEGHAGPDDNEEVMRALLIHEKKTSSAMAGSVGAAAPVTAANGSDSESETSESDDDSPPRPAAVAVHKREEDEEEDDEFEEVADDPIVMVAGRPFSYSEVSQRPELVAQMTPEEKEAYIAMGQRMFEDLFE

Variants of: B1
Conditions: with tf2h1_human GTF2H1, P32780
tf2h1_human GTF2H1, P32780, sequence (P32780 whole entry): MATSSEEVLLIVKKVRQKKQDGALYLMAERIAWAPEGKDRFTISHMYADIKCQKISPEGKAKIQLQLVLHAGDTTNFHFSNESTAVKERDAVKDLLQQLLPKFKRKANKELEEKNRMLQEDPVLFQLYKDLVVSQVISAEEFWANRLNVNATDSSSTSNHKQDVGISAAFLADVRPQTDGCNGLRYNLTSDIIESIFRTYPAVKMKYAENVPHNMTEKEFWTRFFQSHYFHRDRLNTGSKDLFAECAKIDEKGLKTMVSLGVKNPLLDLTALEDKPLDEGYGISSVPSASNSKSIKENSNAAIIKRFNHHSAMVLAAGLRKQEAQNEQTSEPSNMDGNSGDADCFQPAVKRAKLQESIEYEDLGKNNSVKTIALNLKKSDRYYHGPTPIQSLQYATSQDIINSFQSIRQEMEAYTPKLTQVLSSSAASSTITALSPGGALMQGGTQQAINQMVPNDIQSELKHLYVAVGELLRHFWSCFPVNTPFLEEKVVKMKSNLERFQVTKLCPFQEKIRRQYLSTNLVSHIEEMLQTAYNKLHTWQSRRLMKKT

Row | Variant | effect of a mutation on the interaction
1 | MADPDVLTEVPAALKRLAKYVIRGFYGIEHALALDILIRNSCVKEEDMLELLKFDRKQLRSVLNNLKGDKFIKCRMRVETAADGKTTRHNYYFINYRTLVNVVKYKLDHMRRRIETDERDSTNRASFKCPVCSSTFTDLEANQLFDPMTGTFRCTFCHTEVEEDESAMPKKDARTLLARFNEQIEPIYALLRETEDVNLAYEILEPEPTEIPALKQSKDHAATTAGAASLAGGHHREAWATKGPSYEDLYTQNVVINMDDQEDLHRASLEGKSAKERPIWLRESTVQGAYGSEDMKEGGIDMDAFQEREEGHAGPDDNEEVMRALLIHEKKTSSAMAGSVGAAAPVTAANGSDSESETSESDDDSPPRPAAVAVHKREEDEEEDDEFEEAADDPIVMVAGRPFSYSEVSQRPELVAQMTPEEKEAYIAMGQRMFEDLFE [V390A] | disrupting interaction

Variants of: B1
Conditions: with tf2h1_human GTF2H1, P32780
Remark: another data set of the same source

Row | Variant | effect of a mutation on the interaction
2 | MADPDVLTEVPAALKRLAKYVIRGFYGIEHALALDILIRNSCVKEEDMLELLKFDRKQLRSVLNNLKGDKFIKCRMRVETAADGKTTRHNYYFINYRTLVNVVKYKLDHMRRRIETDERDSTNRASFKCPVCSSTFTDLEANQLFDPMTGTFRCTFCHTEVEEDESAMPKKDARTLLARFNEQIEPIYALLRETEDVNLAYEILEPEPTEIPALKQSKDHAATTAGAASLAGGHHREAWATKGPSYEDLYTQNVVINMDDQEDLHRASLEGKSAKERPIWLRESTVQGAYGSEDMKEGGIDMDAFQEREEGHAGPDDNEEVMRALLIHEKKTSSAMAGSVGAAAPVTAANGSDSESETSESDDDSPPRPAAVAVHKREEDEEEDDEAEEVADDPIVMVAGRPFSYSEVSQRPELVAQMTPEEKEAYIAMGQRMFEDLFE [F387A] | disrupting interaction
